The text below walks through data of IntAct's records for PubMed 22759634.

First the molecules themselves.
B1: DNA annealing helicase and endonuclease ZRANB3 (Homo sapiens), Q5FWF4 (parent)
chain: MPRVHNIKKSLTPHISCVTNESDNLLDFLPDRLRAKLLPFQKDGIIFALKRNGRCMVADEMGLGKTIQAIGITYFYKEEWPLLIVVPSSLRYPWTEEIEKWIPELSPEEINVIQNKTDVRRMSTSKVTVLGYGLLTADAKTLIDALNNQNFKVVIVDESHYMKSRNATRSRILLPIVQKARRAILLTGTPALGRPEELFMQIEALFPQKFGRWTDYAKRYCNAHIRYFGKRPQWDCRGASNLNELHQLLSDIMIRRLKTEVLTQLPPKVRQRIPFDLPSAAAKELNTSFEEWEKIMRTPNSGAMETVMGLITRMFKQTAIAKAGAVKDYIKMMLQNDSLKFLVFAHHLSMLQACTEAVIENKTRYIRIDGSVSSSERIHLVNQFQKDPDTRVAILSIQAAGQGLTFTAASHVVFAELYWDPGHIKQAEDRAHRIGQCSSVNIHYLIANGTLDTLMWGMLNRKAQVTGSTLNGRKEKIQAEEGDKEKWDFLQFAEAWTPNDSSEELRKEALFTHFEKEKQHDIRSFFVPQPKKRQLMTSCDESKRFREENTVVSSDPTKTAARDIIDYESDVEPETKRLKLAASEDHCSPSEETPSQSKQIRTPLVESVQEAKAQLTTPAFPVEGWQCSLCTYINNSELPYCEMCETPQGSAVMQIDSLNHIQDKNEKDDSQKDTSKKVQTISDCEKQALAQSEPGQLADSKEETPKIEKEDGLTSQPGNEQWKSSDTLPVYDTLMFCASRNTDRIHIYTKDGKQMSCNFIPLDIKLDLWEDLPASFQLKQYRSLILRFVREWSSLTAMKQRIIRKSGQLFCSPILALEEITKQQTKQNCTKRYITKEDVAVASMDKVKNVGGHVRLITKESRPRDPFTKKLLEDGACVPFLNPYTVQADLTVKPSTSKGYLQAVDNEGNPLCLRCQQPTCQTKQACKANSWDSRFCSLKCQEEFWIRSNNSYLRAKVFETEHGVCQLCNVNAQELFLRLRDAPKSQRKNLLYATWTSKLPLEQLNEMIRNPGEGHFWQVDHIKPVYGGGGQCSLDNLQTLCTVCHKERTARQAKERSQVRRQSLASKHGSDITRFLVKK

Variants of B1 are the subject of the first assay. The note with it: with pcna_human PCNA.
In the case of Q519A;F525A;F526A;Y632A, the “effect of a mutation on the interaction” value is reported as “decreasing interaction strength”.

The variants in a further assay derive from B1. To be noted: with pcna_human PCNA. This is another data set of the same source.
Take Q519A;F525A;F526A: the “effect of a mutation on the interaction” value is on record as “disrupting interaction strength”.
